This series in a line: label from the status in PepcDB records.
On to “MIRILICFSLITASLLITSIFANSALLFTEFIHSLVDLIPIAFAFYALRIIDRIDSKYTYGLHRLEIVSSLFNIFTVVAGSVFSVYISTVELIEGSRGDFLLVLISSSIALSLSLVASTDKSEEGRVSGSKLHAIQDSLAYILAVISSLLIIIMKIYFIDPVSAYILNGVLVITSLSPLKFSYNILMEKSPIDTKSVETELQSIFPQVHHIHVWSICDHLNVATLHVRENPDLTLRELDKKREYAEKVLREKFGITHVTIQFEANNKKERLEKI”, for which the protein production result is listed as “failed”.

Consider “MIRKLDKAEFQQATTLALEVYLQCGQDDFEDEGLESFKSFIFNDKLMNELCIYGAFEENKLIGIMGTKNEGKHISLFFIKKEFHRKGIGKQLFDYSQCDCPANEITVNSSTYAIRFYESLGFEKTNDRQQTNGISYTPMKLISNKLEHHHHHH”, for which the protein production result is “not failed”.

Regarding “MIRKLMICIAVLVGFCPMAWGTVDDVPNPKTYDADNWVSDPDHILDSETKNKINDILQQLEDSLTIEVAVVALNSIGEEEPHEFAVTLFNLWGVGKAKDDNGLLILLTRDIRDITFKTGYGLEGVLPDAICKRIQMETMVPHLRENDWNTGMLEGVKAVAAVLYGSDYQAAPPEAWIKKFRRTTPSLVFIVFALMLILINWLVWKSAVHRMTPKDEGTEAALALLATRNPFTARTLLGLCWLVPVWPAMLGIACWYFGIQKQKTLRRSRTCPKCNRETLREIPLHELIKDTKRLTESERKETELKTAYIRIYRCSACSEEVKIRIPLEKDGYECCPSCGHMTLHKEEKYRTIIKATTSSEGLMEARHRCMYCDAEYMVGYTIPKINPSSRRSGGSGGGGGGSFGGGSSGGGGSSSRF”, the protein production result is given as “failed”.

With “MIRLNVFVRVNETNREKAIEAAKELTACSLKEEGCIAYDTFESSTRRDVFMICETWQNAEVLAAHEKTAHFAQYVGIIQELAEMKLEKFEF”, the protein production result is given as “not failed”.

For the sequence “MIRSIVCTQRLIHRIMYTSARKYFIQFAIVAFVLGFIPTLYFIHAASQLETQAVSSVEKQTRLQLEFSQHDLLRMLESTHQATQLLAKNDLLFTAVTTPSKEALSQLKTLWDVTLRSQAIFSSFRLLDRQGKEQLKAIYDGHQVTFVESAQTTDPFSQQIVAQYAQLTTPQVWATQVAMSADTPSGMLPTFRFVTGIEHQGQRQGFLVVTVKLQSLYQRLSFIYDQFDSPDILNSAGELLLSEHKPSGTRSTSSLHFSAQHPELWQKIQLNQQGFALSNQTWFSYIKVDLSSVLPDFKPLVLVLRINKAEIDKTYANARWALMSQAVTVLSLLSIIAAGFAAWNINHLKNSLDSKLARAAMDGMSAVVITDRQNRIIKVNNEFTRLSGYTFEDVKGKQPSIFASGLHKVEFYMQMWKALQDNGVWEGEVINKRKDGESITEILRIQSIRDEDNVIQFYVASFVDISHRKALENRLRELSEKDALTDLWNRRKFDQTISLECAKRRRYPDQAQSCLAIIDIDHFKRINDKFGHNEGDLVLRTVAKGIQDQLRESDFIARIGGEEFAIIFPYTSIEEAEQVLNRVRLHIASLHHQQVTLSGGVTDVCTSPDQSYKRADLALYESKTSGRNQISVLTAMEMHHFA”, the protein production entry is “failed”.

In the case of “MIRVASLIKAMSDTQLQIAQGASPLTGLPGNSAIEQEIKRRLNSGNAFGMIYADLNQFKAFNDTYGFQYGDSIIKLLGKILMQDSLKADDLAFVGHVGGDDFIILTTQNVTKTLGETILLSFQEQLSAMQGAQDLSLALAGLIIYPHTAWTPATLSERIAAVKREAKKAHCNYFLLRELEHHHHHH”, the protein production result is “failed”.

As for “MIRVMATGVFDILHLGHIHYLKESKKLGDELVVVVARDSTARNNGKIPIFDENSRLALISELKVVDRAILGHEGDMMKTVIEVKPDIITLGYDQKFDEAELQSKINKLGITVKIVRISKYDGQLNSSSSVRKKIMELIGERY”, the protein production result is given as “not failed”.

In the case of “MISALDSIPEPQNFAPSPDFKWLCEELFVKIHEVQINGTAGTGKSRSFKYYEIISNFVEMWRKTVGNNIYPALVLALPYRDRRIYNIKDYVLIRTICSYLKLPKNSATEQRLKDWKQRVGKGGNLSSLLVEEIAKRRAEPSSKAITIDNVNHYLDSLSGDRFASGRGFKSLVKSKPFLHCVENMSFVELKYFFDIVLKNRVIGGQEHKLLNCWHPDAQDYLSVISDLKVVTSKLYDPKVRLKDDDLSIKVGFAFAPQLAKKVNLSYEKICRTLHDDFLVEEKMDGERIQVHYMNYGESIKFFSRRGIDYTYLYGASLSSGTISQHLRFTDSVKECVLDGEMVTFDAKRRVILPFGLVKGSAKEALSFNSINNVDFHPLYMVFDLLYLNGTSLTPLPLHQRKQYLNSILSPLKNIVEIVRSSRCYGVESIKKSLEVAISLGSEGVVLKYYNSSYNVASRNNNWIKVKPEYLEEFGENLDLIVIGRDSGKKDSFMLGLLVLDEEEYKKHQGDSSEIVDHSSQEKHIQNSRRRVKKILSFCSIANGISQEEFKEIDRKTRGHWKRTSEVAPPASILEFGSKIPAEWIDPSESIVLEIKSRSLDNTETNMQKYATNCTLYGGYCKRIRYDKEWTDCYTLNDLYESRTVKSNPSYQAERSQLGLIRKKRKRVLISDSFHQNRKQLPISNIFAGLLFYVLSDYVTEDTGIRITRAELEKTIVEHGGKLIYNVILKRHSIGDVRLISCKTTTECKALIDRGYDILHPNWVLDCIAYKRLILIEPNYCFNVSQKMRAVAEKRVDCLGDSFENDISETKLSSLYKSQLSLPPMGELEIDSEVRRFPLFLFSNRIAYVPRRKISTEDDIIEMKIKLFGGKITDQQSLCNLIIIPYTDPILRKDCMNEVHEKIKEQIKASDTIPKIARVVAPEWVDHSINENCQVPEEDFPVVNY”, the protein production result is “failed”.

Consider “MISLRTFLITFLVNIALLGIFWGNRMNFVDVVIFSFFSALFVSLATHILVTSRLRKLREAVARKSRFEDFLNDEITKLAEEVNSVVENSLIQEKETEKLKDIVTGFVHDVKSLVWNEVEDENLQKIIEEFYEFAKLEAGLERLRKEPVNLVELVNDVVEKFPGKVIFKYDDVVEVEADPMKLFRAFYNVIENAVKYSSGPVEVHVKKDRIIVKGPGPEIPYEVRANLFEKKKKSKGTGLGLYLAREFFEMHGFRIAYRREGNHNVFEIYTGYTGMSSVKSERDSR”, for which the protein production result was “not failed”.

“MISMKEEIKKVIEETGLPIITDEKSGAAQWVDLRELRLSYIISVENIKPFYEGLKEGKLLGTKCKKCGRLFFPPQKDCPSCFDSDIEWVELKNEGTLETMTVVFVRPPSFSAYDPYPVAIAKLDDGPRILAWYKGDPQQAKPGMRVKIQVGKRKEGYLMYEIAPALEHHHHHH”: the protein production entry was “failed”.

On to “MISPDAKIKIQNFGRFLSNMVMPNIGAFIAWGFITALFIPTGWLPNETLASMVGPMITYLLPLLIGYTGGKLVGGDRGAVVGAITTMGVIVGTDIPMFMGAMMVGPMGGWAIKKFDNYIDGKVKSGFEMLVNNFSAGIIGMLCAILAFFLIGPFVKVLSGALAAGVNFLVSAHLLPLTSIFVEPAKILFLNNAINHGIFSPLGIQQASETGQSIFFLIEANPGPGLGILLAYMVFGKGTARQTAGGASIIHFFGGIHEIYFPYILMNPRLILAAIAGGMTGVFVLTMFNAGIVSPASPGSIFAILLMTQKGSIVGVLASIAAATGVSFAVASLLMKTQTSTEEDGDEAALEKATSQMKDMKSSSKNGAVVNNESKGDVDLATVQSIIVACDAGMGSSAMGASMLRKKVQDAGLNVHVTNLAINSLPESADIVITHKDLTGRARKHAPNAHHISLTNFLDSEMYNQLVTKLLAAQKQSAANDDQMVKVSVLAANDDSFEPQQPSVFQIQRENIHLGLKAANKEEAIRFAGNKLVELGYAEPEYVDAMFEREALVPTYLGESIAVPHGTVEAKDRVKKTGIVICQYPSGIQFTEDDDDVAKLVIGIAAKNDEHIQVITTITNALDEPEAIEKLTSTNDVEEILNILGGQQAA”, for which the protein production entry is listed as “failed”.

In the case of “MISRQQKMTFKEIKDGEMEERDILLTGFYNVRLNSVQEARLTYNLPNDQTVKFGFDGNGYSYGSDFWYIYNRTAQLGKEISSHLDENASKWIEEAGQKGYTTGNQAKVGAIACLPSYLSDAESSSHLAFVEYLNSDGSFIVSEMPSPNILNWRLIQPQSKMTFIYL”, the protein production result was “failed”.

Regarding “MISSKNGAAMISRPVFLSDRVDEVFSRKLDLSVSSSSSSSLLQQFNKTHEGDDDARLALAHQLYKGGDFKQALEHSNMVYQRNPLRTDNLLLIGAIYYQLQEYDMCIARNEEALRIQPQFAECYGNMANAWKEKGDTDRAIRYYLIAIELRPNFADAWSNLASAYMRKGRLSEATQCCQQALSLNPLLVDAHSNLGNLMKAQGLIHEAYSCYLEAVRIQPTFAIAWSNLAGLFMESGDLNRALQYYKEAVKLKPAFPDAYLNLGNVYKALGRPTEAIMCYQHALQMRPNSAMAFGNIASIYYEQGQLDLAIRHYKQALSRDPRFLEAYNNLGNALKDIGRVDEAVRCYNQCLALQPNHPQAMANLGNIYMEWNMMGPASSLFKATLAVTTGLSAPFNNLAIIYKQQGNYSDAISCYNEVLRIDPLAADALVNRGNTYKEIGRVTEAIQDYMHAINFRPTMAEAHANLASAYKDSGHVEAAITSYKQALLLRPDFPEATCNLLHTLQCVCCWEDRSKMFAEVESIIRRQINMSVLPSVQPFHAIAYPIDPILALEISRKYAAHCSIIASRFGLPPFTHPAGLPVKREGGFKRLRIGYVSSDFGNHPLSHLMGSVFGMHNRENVEVFCYALSANDNTEWRQRIQSEAEHFLDVSAMSSDAIAKIINQDKIQILINLNGYTKGARNEIFAMQPAPIQVSYMGFPGTTGATYIDYLVTDEFVSPLQYAHIYSEKLVHLPHCYFVNDYKQKNQDVLDPNSKPKRSDYGLPEDKFIFACFNQLYKMDPEIVNTWCNILKRVPNSALWLLRFPAAGEMRFRTYAAAQGVQPDQIIFTDVAMKSEHIRRSVLADVILDTPLCNGHTTGTDVLWAGVPMITLPLEKMATRVAGSLCLATGLGHGMIVNSLEEYEEKAVSLALNKPKLQALTKELRASRLTCPLFDTMRWVKNLERSYFKMWNLHCSGQQPQHFKVLENDLEFPHDR”, the protein production entry is reported as “failed”.

“MISYIQTKIHHINFLHDSLFKNAFFLMLSSISTAGFGFIFWFLAAKFYSASDVGIATGIMSSMTLIVNLSRFGLDYSIIRFFPTHDKCKVFSTSTVISTLIALIFGLIFISGINSFSPELSFLRSPLYTLFYFISLTSSSVIFMAGIFFVAIREAEFQLYLNLIVGSRVLFVILFISLGAIGIFYAVGASFFIAFLISLVLILKSGTDLKLKIDRKFLTDSFNFSAGNFLTGLFMTVPNTLLPIMILNMHLVEQAAYYYIVFGIVSLLFMIPESISTSLFVEGSNGQSLKKTVIQSLVIIFLLLTPIALFFYLYGSLILGFIGQDYVAGGSGVFRLMIFASFFVVVNNVYFAIKRIQKDTKEITLLSGIIFILLIGLAFLLIPVLGIEGIGYAWIISYGTGALIILIQVFRKARFQNLLIKAM”: the protein production result is “failed”.

“MITAFVLIRPRGNRVQALGEAIAELPQVAEVYSVTGPYDLVALVRLKDVEELDDVVTQGILSLEGVERTETLLAFRAYPRRLLDQGFALGQG”: the protein production entry is recorded as “not failed”.

On to “MITFIIHSVSAETASESLLSKLAEAKDYLRIQPSVSSRILKKHLANIGQLTINDQLSWHQNLLRASIALNDLNQVEKTVKVMLSYPELEKKTDKFVSLLSSLGIFLRRTGHPNESILLFNCGLEQPIKNGKQKISLLISKGSSLSSLNKYSQAKTTYAQALQLAKQQNSEVLISAIYNTLGIMALKQGNYTLAKEYLVNALQLSQKISRRSGQIVAGLQLLRLSILSDEPMLYDRLHYRISRLTLVSESEVRHAYLFWLEKAHKASKGNKLSAQEQDELLSKLDQIKPISVSLYNQLVETLAEPMGITSLALINESSEYQGDLLNNIHQCKNIE”, for which the protein production result is recorded as “failed”.

Values taken from a protein production outcome set (Wang et al. 2014).
